Measured values: the supplement of paper PMC11246515
± gives the standard deviation of the averaged measurements.

Assay: total protein half-life in vivo (active degradation + dilution); higher = more stable protein
[1] = E. coli NCM3722 delta-clpP, growth: N-lim chemostat, doubling time 6 h
[2] = E. coli NCM3722 delta-smpB, growth: N-lim chemostat, doubling time 6 h
[3] = wild type E. coli NCM3722, growth: C-lim chemostat, doubling time 3 h
[4] = wild type E. coli NCM3722, growth: C-lim chemostat, doubling time 6 h
[5] = wild type E. coli NCM3722, growth: C-lim chemostat, doubling time 12 h
[6] = E. coli NCM3722 delta-clpP delta-lon delta-hslV, growth: N-lim chemostat, doubling time 6 h
[7] = E. coli NCM3722 delta-hslV, growth: N-lim chemostat, doubling time 6 h
[8] = E. coli NCM3722 delta-lon, growth: N-lim chemostat, doubling time 6 h
[9] = wild type E. coli NCM3722, growth: N-lim chemostat, doubling time 6 h
[10] = wild type E. coli NCM3722, growth: N-lim chemostat, doubling time 12 h
[11] = wild type E. coli NCM3722, growth: P-lim chemostat, doubling time 6 h
[12] = wild type E. coli NCM3722, growth: P-lim chemostat, doubling time 12 h

Sequence	total protein half-life in vivo [1] [h]	total protein half-life in vivo [2] [h]	total protein half-life in vivo [3] [h]	total protein half-life in vivo [4] [h]	total protein half-life in vivo [5] [h]	total protein half-life in vivo [6] [h]	total protein half-life in vivo [7] [h]	total protein half-life in vivo [8] [h]	total protein half-life in vivo [9] [h]	total protein half-life in vivo [10] [h]	total protein half-life in vivo [11] [h]	total protein half-life in vivo [12] [h]
MFNRIRISTTLFLILILCGILQIGSNGMSFWAFRDDLQRLNQVEQSNQQRAALAQTRAVMLQASTALNKAGTLTALSYPADDIKTLMTTARASLTQSTTLFKSFMAMTAGNEHVRGLQKETEKSFARWHNDLEHQATWLESNQLSDFLTAPVQGSQNAFDVNFEAWQLEINHVLEAASAQSQRNYQISALVFISMIIVAAIYISSALWWTRKMIVQPLAIIGSHFDSIAAGNLARPIAVYGRNEITAIFASLKTMQQALRGTVSDVRKGSQEMHIGIAEIVAGNNDLSSRTEQQAASLAQTAASMEQLTATVGQNADNARQASELAKNAATTAQAGGVQVSTMTHTMQEIATSSQKIGDIISVIDGIAFQTNILALNAAVEAARAGEQGRGFAVVAGEVRNLASRSAQAAKEIKGLIEESVNRVQQGSKLVNNAAATMIDIVSSVTRVNDIMGEIASASEEQQRGIEQVAQAVSQMDQVTQQNASLVEEAAVATEQLANQADHLSSRVAVFTLEEHEVARHESVQLQIAPVVS	6.16	> 8	1.87 ± 0.38	3.01 ± 0.33	4.13 ± 0.71							
MNTRWQQAGQKVKPGFKLAGKLVLLTALRYGPAGVAGWAIKSVARRPLKMLLAVALEPLLSRAANKLAQRYKR [P0AFV8]						3.32 ± 0.39						
MMNDSFCRIIAGEIQARPEQVDAAVRLLDEGNTVPFIARYRKEITGGLDDTQLRNLETRLSYLRELEERRQAILKSISEQGKLTDDLAKAINATLSKTELEDLYLPYKPKRRTRGQIAIEAGLEPLADLLWSDPSHTPEVAAAQYVYADKGVADTKAALDGARYILMERFAEDAALLAKVRDYLWKNAHLVSTVVSGKEEEGAKFRDYFDHHEPLSTVPSHRALAMFRGRNEGVLQLSLNADPQFDEPPKESYCEQIIMDHLGLRLNNAPADSWRKGVVSWTWRIKVLMHLETELMGTVRERAEDEAINVFARNLHDLLMAAPAGLRATMGLDPGLRTGVKVAVVDATGKLVATDTIYPHTGQAAKAAMTVAALCEKHNVELVAIGNGTASRETERFYLDVQKQFPKVTAQKVIVSEAGASVYSASELAAQEFPDLDVSLRGAVSIARRLQDPLAELVKIDPKSIGVGQYQHDVSQTQLARKLDAVVEDCVNAVGVDLNTASVPLLTRVAGLTRMMAQNIVAWRDENGQFQNRQQLLKVSRLGPKAFEQCAGFLRINHGDNPLDASTVHPEAYPVVERILAATQQALKDLMGNSSELRNLKASDFTDEKFGVPTVTDIIKELEKPGRDPRPEFKTAQFADGVETMNDLQPGMILEGAVTNVTNFGAFVDIGVHQDGLVHISSLSNKFVEDPHTVVKAGDIVKVKVLEVDLQRKRIALTMRLDEQPGETNARRGGGNERPQNNRPAAKPRGREAQPAGNSAMMDALAAAMGKKR	4.8 ± 0.3	3.26 ± 0.074	2.49 ± 0.14	4.69 ± 0.19	7.55 ± 0.32	5.48 ± 0.19	3.58 ± 0.041	4.124 ± 0.019	3.63 ± 0.087	5.457 ± 0.049	3.88 ± 0.065	6.81 ± 0.56
MNKTAIALLALLASSASLAATPWQKITQPVPGSAQSIGSFSNGCIVGADTLPIQSEHYQVMRTDQRRYFGHPDLVMFIQRLSSQVSNLGMGTVLIGDMGMPAGGRFNGGHASHQTGLDVDIFLQLPKTRWTSAQLLRPQALDLVSRDGKHVVSTLWKPEIFSLIKLAAQDKDVTRIFVNPAIKQQLCLDAGTDRDWLRKVRPWFQHRAHMHVRLRCPADSLECEDQPLPPSGDGCGAELQSWFEPPKPGTTKPEKKTPPPLPPSCQALLDEHVI [P0C0T5]			0.792				0.831					
MPAVIDKALDFIGAMDVSAPTPSSMNESTAKGIFKYLKELGVPASAADITARADQEGWNPGFTEKMVGWAKKMETGERSVIKNPEYFSTYMQEELKALV	0.88	0.51	0.644 ± 0.18	0.706		1.25 ± 0.38			0.681 ± 0.18	0.727 ± 0.045	0.402	1.25
MQVLHVCSEMFPLLKTGGLADVIGALPAAQIADGVDARVLLPAFPDIRRGVTDAQVVSRRDTFAGHITLLFGHYNGVGIYLIDAPHLYDRPGSPYHDTNLFAYTDNVLRFALLGWVGAEMASGLDPFWRPDVVHAHDWHAGLAPAYLAARGRPAKSVFTVHNLAYQGMFYAHHMNDIQLPWSFFNIHGLEFNGQISFLKAGLYYADHITAVSPTYAREITEPQFAYGMEGLLQQRHREGRLSGVLNGVDEKIWSPETDLLLASRYTRDTLEDKAENKRQLQIAMGLKVDDKVPLFAVVSRLTSQKGLDLVLEALPGLLEQGGQLALLGAGDPVLQEGFLAAAAEYPGQVGVQIGYHEAFSHRIMGGADVILVPSRFEPCGLTQLYGLKYGTLPLVRRTGGLADTVSDCSLENLADGVASGFVFEDSNAWSLLRAIRRAFVLWSRPSLWRFVQRQAMAMDFSWQVAAKSYRELYYRLK [P0A6U8]	6.92 ± 1.1	5.83 ± 0.06	3.03 ± 0.11	6.7 ± 0.36	11.4 ± 0.49	6.98 ± 0.61	6.028 ± 0.0091	5.806 ± 0.035	6.21 ± 0.21	13.2 ± 2	6.32 ± 0.3	12.4 ± 0.65
MRIEVTIAKTSPLPAGAIDALAGELSRRIQYAFPDNEGHVSVRYAAANNLSVIGATKEDKQRISEILQETWESADDWFVSE [P0ABR1]			0.937 ± 0.5			3.596 ± 0.025	2.28	2.08 ± 0.25		0.715		0.859
MFDVLMYLFETYIHTEAELRVDQDKLEQDLTDAGFEREDIYNALLWLEKLADYQEGLAEPMQLASDPLSMRIYTPEECERLDASCRGFLLFLEQIQVLNLETREMVIERVLALDNAEFELDDLKWVILMVLFNIPGCENAYQQMEELLFEVNEGMLH [P0A828]	0.182	0.365			0.0972	5.9529 ± 0.00025		0.569	1.05			
MARLAAFDMDGTLLMPDHHLGEKTLSTLARLRERDITLTFATGRHALEMQHILGALSLDAYLITGNGTRVHSLEGELLHRDDLPADVAELVLYQQWDTRASMHIFNDDGWFTGKEIPALLQAFVYSGFRYQIIDVKKMPLGSVTKICFCGDHDDLTRLQIQLYEALGERAHLCFSATDCLEVLPVGCNKGAALTVLTQHLGLSLRDCMAFGDAMNDREMLVSVGSGFIMGNAMPQLRAELPHLPVIGHCRNQAVSHYLTHWLDYPHLPYSPE						5.84 ± 0.52		1.61				
MRFSHRLFLLLILLLTGAPILAQEPSDVAKNVRMMVSGIVSYTRWPALSGPPKLCIFSSSRFSTALQENAATSLPYLPVIIHTQQEAMISGCNGFYFGNESPTFQMELTEQYPSKALLLIAEQNTECIIGSAFCLIIHNNDVRFAVNLDALSRSGVKVNPDVLMLARKKNDG		3.1		> 8	6.32	3.28 ± 0.12	2.98 ± 0.17		2.98	4.75	5	6.03 ± 0.098
MSEPQRLFFAIDLPAEIREQIIHWRATHFPPEAGRPVAADNLHLTLAFLGEVSAEKEKALSLLAGRIRQPGFTLTLDDAGQWLRSRVVWLGMRQPPRGLIQLANMLRSQAARSGCFQSNRPFHPHITLLRDASEAVTIPPPGFNWSYAVTEFTLYASSFARGRTRYTPLKRWALTQ	4.8	4.66 ± 0.56	3.11	6.25 ± 0.27	11	5.3 ± 0.55			5.03 ± 0.89	8.49 ± 0.71	5.55 ± 0.13	11.33 ± 0.097
MKSKDTLKWFPAQLPEVRIILGDAVVEVAKQGRPINTRTLLDYIEGNIKKTSWLDNKELLQTAISVLKDNQNLNGKM		2.39			4.92							
MSLNMFWFLPTHGDGHYLGTEEGSRPVDHGYLQQIAQAADRLGYTGVLIPTGRSCEDAWLVAASMIPVTQRLKFLVALRPSVTSPTVAARQAATLDRLSNGRALFNLVTGSDPQELAGDGVFLDHSERYEASAEFTQVWRRLLQRETVDFNGKHIHVRGAKLLFPAIQQPYPPLYFGGSSDVAQELAAEQVDLYLTWGEPPELVKEKIEQVRAKAAAHGRKIRFGIRLHVIVRETNDEAWQAAERLISHLDDETIAKAQAAFARTDSVGQQRMAALHNGKRDNLEISPNLWAGVGLVRGGAGTALVGDGPTVAARINEYAALGIDSFVLSGYPHLEEAYRVGELLFPLLDVAIPEIPQPQPLNPQGEAVANDFIPRKVAQS						5.43 ± 0.79						
MSTANQKPTESVSLNAFKQPKAFYLIFSIELWERFGYYGLQGIMAVYLVKQLGMSEADSITLFSSFSALVYGLVAIGGWLGDKVLGTKRVIMLGAIVLAIGYALVAWSGHDAGIVYMGMAAIAVGNGLFKANPSSLLSTCYEKNDPRLDGAFTMYYMSVNIGSFFSMIATPWLAAKYGWSVAFALSVVGLLITIVNFAFCQRWVKQYGSKPDFEPINYRNLLLTIIGVVALIAIATWLLHNQEVARMALGVVAFGIVVIFGKEAFAMKGAARRKMIVAFILMLEAIIFFVLYSQMPTSLNFFAIRNVEHSILGLAVEPEQYQALNPFWIIIGSPILAAIYNKMGDTLPMPTKFAIGMVMCSGAFLILPLGAKFASDAGIVSVSWLVASYGLQSIGELMISGLGLAMVAQLVPQRLMGFIMGSWFLTTAGANLIGGYVAGMMAVPDNVTDPLMSLEVYGRVFLQIGVATAVIAVLMLLTAPKLHRMTQDDAADKAAKAAVA										4.49		
MNTLRIGLVSISDRASSGVYQDKGIPALEEWLTSALTTPFELETRLIPDEQAIIEQTLCELVDEMSCHLVLTTGGTGPARRDVTPDATLAVADREMPGFGEQMRQISLHFVPTAILSRQVGVIRKQALILNLPGQPKSIKETLEGVKDAEGNVVVHGIFASVPYCIQLLEGPYVETAPEVVAAFRPKSARRDVSE [P0AF03]	4.24 ± 0.53	4.82 ± 0.54	2.8 ± 0.21	5.83 ± 0.49	9.32 ± 0.82	4.79 ± 0.77	4.594 ± 0.04	5.05 ± 0.59	4.61 ± 0.27	8.09 ± 0.46	5.41 ± 0.4	11.3 ± 0.16
MKHSVSVTCCALLVSSISLSYAAEVPSGTVLAEKQELVRHIKDEPASLDPAKAVGLPEIQVIRDLFEGLVNQNEKGEIVPGVATQWKSNDNRIWTFTLRDNAKWADGTPVTAQDFVYSWQRLVDPKTLSPFAWFAALAGINNAQAIIDGKATPDQLGVTAVDAHTLKIQLDKPLPWFVNLTANFAFFPVQKANVESGKEWTKPGNLIGNGAYVLKERVVNEKLVVVPNTHYWDNAKTVLQKVTFLPINQESAATKRYLAGDIDITESFPKNMYQKLLKDIPGQVYTPPQLGTYYYAFNTQKGPTADQRVRLALSMTIDRRLMTEKVLGTGEKPAWHFTPDVTAGFTPEPSPFEQMSQEELNAQAKTLLSAAGYGPQKPLKLTLLYNTSENHQKIAIAVASMWKKNLGVDVKLQNQEWKTYIDSRNTGNFDVIRASWVGDYNEPSTFLTLLTSTHSGNISRFNNPAYDKVLAQASTENTVKARNADYNAAEKILMEQAPIAPIYQYTNGRLIKPWLKGYPINNPEDVAYSRTMYIVKH	5.6 ± 0.17	5.63 ± 0.21	3.26 ± 0.29	6.21 ± 0.43	10.1 ± 0.25	5.12 ± 0.18	6.96 ± 0.47	6.18 ± 0.087	6.41 ± 0.44	12.1 ± 0.92	5.86 ± 0.16	12.4 ± 1.1
MIDVLGPEKRRRRTTQEKIAIVQQSFEPGMTVSLVARQHGVAASQLFLWRKQYQEGSLTAVAAGEQVVPASELAAAMKQIKELQRLLGKKTMENELLKEAVEYGRAKKWIAHAPLLPGDGE [P0CF42]			0.121		1.26	2.54 ± 0.27			0.716	1.37		
